B1: Regulator of cell cycle RGCC (Homo sapiens), Q9H4X1-2 (parent)
chain: MKPPAEDLSDALCEFDAVLADFASPFHERHFHYEEHLERMKRRSSASVSDSSGFSDSESADSLYRNSFSFSDEKLNSPTDSTPALLSATVTPQKAKLGDTKELEAFIADLDKTLASM

Variants of: B1
Settings: with akt1_human AKT1, P31749
Sequence of akt1_human AKT1, P31749 (P31749 whole entry): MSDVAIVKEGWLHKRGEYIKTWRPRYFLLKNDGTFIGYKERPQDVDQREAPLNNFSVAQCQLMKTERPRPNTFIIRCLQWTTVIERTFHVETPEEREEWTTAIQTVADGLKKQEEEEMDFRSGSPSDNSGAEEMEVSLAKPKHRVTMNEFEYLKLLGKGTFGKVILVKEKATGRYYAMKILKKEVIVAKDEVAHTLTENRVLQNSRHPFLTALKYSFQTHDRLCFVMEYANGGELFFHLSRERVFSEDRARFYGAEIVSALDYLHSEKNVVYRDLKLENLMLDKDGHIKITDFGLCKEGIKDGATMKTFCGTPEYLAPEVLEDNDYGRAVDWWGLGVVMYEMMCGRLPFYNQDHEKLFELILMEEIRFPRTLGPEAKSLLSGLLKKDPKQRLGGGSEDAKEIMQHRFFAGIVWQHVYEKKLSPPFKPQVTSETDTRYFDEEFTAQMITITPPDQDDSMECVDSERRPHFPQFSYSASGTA

Variant | effect of a mutation on the interaction
MKPPAEDLSDALCEFDAVLADFASPFHERHFHYEEHLERMKRRSAAAVSDSSGFSDSESADSLYRNSFSFSDEKLNSPTDSTPALLSATVTPQKAKLGDTKELEAFIADLDKTLASM [S45A;S47A] | disrupting interaction
